These results are taken from patent US5891679A, “TNF-alpha muteins and a process for preparing them” (priority 1993, dated 1999).

Bounds are passed on as bounds.

Data set [1] relates to human interleukin 8 (IL8). The data set is described as follows: IL8 production by hMVECb cells. Format: cell-based. The note with it: for IL8 concentration: 24 hours; for IL8 induction compared with wild type: human endothelial brain cells.
Data set [2] has as its system human interleukin-6 (IL6). As to the kind of experiment: IL6 production by hMVECb cells. It counts as cell-based. The conditions noted are these: for IL6 concentration: 24 hours. As to the method:
Subsequently, the IL6 concentration in the supernatant of the cells was assessed using a commercially available hIL6 ELISA kit (Medgenix, Belgium).

Data set [3] deals with C57BL/6 mice. The data set is described as follows: TNF-α-induced lethal shock in mice. It counts as in vivo, mouse (C57BL/6). As for the experimental part:
Female 10-weeks old C57BL/6 mice (Iffa Credo, France) were used in all in vivo TNF-induced lethal shock experiments.
Intravenous (i.v.) injection of 10-week-old C57BL/6 mice with 10 μg/mouse of mTNF-α causes death within 48 hours.
Ten weeks old C57BL/6 mice (5 to 6/group) were injected with different doses of wild type or mutant mouse TNF-α and the postinjection survival time was then assessed.

Data set [4] has as its system Trypanosoma brucei brucei. As to the kind of experiment: In vitro trypanocidal assay, T. brucei brucei. It counts as cell-based. The note with it: for mortality of trypanosomes: data not shown. As for the experimental part:
(§1) The Trypanosoma brucei brucei AnTat 1.1 (EATRO 1125) pleomorphic bloodstream form was kindly provided to us by Dr. N. Van Meirvenne of the Institute for Tropical Medecine, Antwerp, Belgium, and the Trypanosoma brucei rhodesiense Trp 11 pleomorphic bloodstream form was kindly provided to us by Dr. E. Bajyana Songa (Dept. Molecular Biology, Free University of Brussels, Belgium)
(§2) After 5 h of incubation, the number of live (=moving) parasites was assessed (counting chamber) and compared the control wells in which only incubation medium was added to the trypanosomes. […] All treatments were done in quadruplicate and all reported in vitro trypanolysis experiments were repeated at least 3 times.

Data set [5] deals with Trypanosoma brucei rhodesiense. The data set is described as follows: In vitro trypanocidal assay, T. brucei rhodesiense. It counts as cell-based. The conditions noted are these: 5 h; for mortality of trypanosomes: data not shown. As for the experimental part:
as §1, §2

Data set [6] relates to 3LL-R Lewis lung carcinoma cells. As to the kind of experiment: Experimental metastasis inducing capacity on TNF resistant 3LL-R Lewis lung carcinoma cells. Format: in vivo, mouse (C57bl/6). The note with it: for general condition of mice / mean lung weight: 17 days; for mean lung weight: 5 μg/mouse i.p. 5 hours prior to 3LL-R cells; for metastasis enhancing potential compared with wild type TNF: 3LL-R. As for the experimental part: At this time, all mice were killed and the lung weight as well as the amount of cancer cell nodules in the lung was assessed.

Data set [7] deals with L929 cells. As to the kind of experiment: L929 cell killing (cytotoxic/cytolytic/tumoricidal) assay. It counts as cell-based, mouse. As for the experimental part:
L929 fibrosarcoma cells were obtained from the Rega Institute, Leuven, Belgium.
After 18 h of culture at 37° C., viability of the cell cultures was assessed by dye uptake analysis. […] The plates were read spectrophotometrically at 577 nm with a Titertek multiscan MCC340 ELISA Reader (Flow Laboratories, McLean, Va.).

A short description of data set [8]: In vivo half life of wild type and tip-deleted TNF-α (serum concentration).
Method: An ELISA assay to measure the protein concentration of the wild type and tip-deleted or tip-mutated mouse TNF-α protein was developed. […] Subsequently, the plates were washed once with washing buffer (PBS, 0.05% Tween-20) and the remaining binding sites were blocked for at least one hour at 37° C. with 300 μl per well of PBS buffer supplemented with 1% BSA and 0.1% NaN3. Dilutions of sample or standard mTNF-α (0.01 to 10 ng/ml mTNF-α), made in 100 μl of PBS supplemented with 1% BSA, 1% rabbit serum, and 0.1% mertiolate are then added to each well and incubated for 2 hours at 37° C. […] Subsequently, the plates are washed four times with washing buffer wherafter 100 μl of straptavidin-horseradish peroxidase (Jackson Immunoresearch Labs), which has been diluted in sample diluent to a concentration of 100 ng/ml is added and incubated for 30 minutes at 37° C. […] The reaction is stopped by adding 100 μl per well of 2N H2SO4 wherafter the optical density is read at dual wavelength (450/595 nm).
Female 8 weeks old C57bL/6 mice (6 mice/group--Charles Rivers Deutshland) were injected intraperitoneally with 1 μg/mouse of either wild type mouse TNF-α or tip deleted TNF-α. Subsequently, the mice were bled 0.5, 5, 10, 15, 30, 60, 120, 180, or 240 minutes post-injection.
Where [9] appears, read: mTNF-α 1000 pg/ml, +p55 (5 μg/ml).
Setting [10] is: mTNF-α 10000 pg/ml, +p55 (5 μg/ml).
The mark [11] stands for this setting: Experiment 1, 0.5 minutes, 1 μg/mouse i.p.
[12] abbreviates: Experiment 1, 5 minutes, 1 μg/mouse i.p.
Setting [13] is: Experiment 1, 10 minutes, 1 μg/mouse i.p.
Where [14] appears, read: Experiment 1, 15 minutes, 1 μg/mouse i.p.
Setting [15] is: Experiment 1, 30 minutes, 1 μg/mouse i.p.
[16] abbreviates: Experiment 1, 60 minutes, 1 μg/mouse i.p.
[17] abbreviates: Experiment 1, 120 minutes, 1 μg/mouse i.p.
Where [18] appears, read: Experiment 1, 180 minutes, 1 μg/mouse i.p.
Setting [19] is: Experiment 1, 240 minutes, 1 μg/mouse i.p.
[20] abbreviates: Experiment 2, 0.5 minutes, 1 μg/mouse i.p.
[21] abbreviates: Experiment 2, 15 minutes, 1 μg/mouse i.p.
The mark [22] stands for this setting: Experiment 2, 30 minutes, 1 μg/mouse i.p.
Setting [23] is: Experiment 2, 60 minutes, 1 μg/mouse i.p.
[24] abbreviates: Experiment 2, 120 minutes, 1 μg/mouse i.p.
The mark [25] stands for this setting: Experiment 2, 180 minutes, 1 μg/mouse i.p.
Setting [26] is: Experiment 2, 240 minutes, 1 μg/mouse i.p.

For “mTNF-α: Purified recombinant mouse tumor necrosis factor-alpha, produced in E. coli”, the IL8 concentration was found to be 1050 pg/mL in data set [1] (333 pg/ml, experiment 1); 1700 pg/mL in data set [1] (333 pg/ml, experiment 2); 1680 pg/mL in data set [1] (1000 pg/ml, experiment 1); 1800 pg/mL in data set [1] (1000 pg/ml, experiment 2); 1200 pg/mL in data set [1] (1666 pg/ml, experiment 1); 1650 pg/mL in data set [1] (1666 pg/ml, experiment 2). Also, the IL6 concentration in data set [2] (333 pg/ml, experiment 1) is 1520 pg/mL; in data set [2] (333 pg/ml, experiment 2) it was 1900 pg/mL; in data set [2] (1000 pg/ml, experiment 1), 1250 pg/mL; in data set [2] (1000 pg/ml, experiment 2) it was 1400 pg/mL; in data set [2] (1666 pg/ml, experiment 1), 1220 pg/mL; in data set [2] (1666 pg/ml, experiment 2), 1300 pg/mL. Further, the lethal dose in data set [3] (C57BL/6 mice) was determined as 10 μg/mouse. This molecule came in with a time to death in data set [3] (i.v. 10 μg/mouse) not above 48 h. For the same molecule, the “concentration at which 50% of the animals (parasites) are killed” value stood at 5000 pg/mL in data set [4] (T. brucei brucei, 5 h) and 5000 pg/mL in data set [5]. In addition, in data set [4] (in vitro trypanocidal assay), the trypanocidal specific activity was 2×10^5 U/mg of protein. Further, the “Trypanocidal activity (% lysis)” value in data set [4] (mTNF-α 100 pg/ml, +p55 (5 μg/ml soluble p55 hTNF-α receptor)) was 25 ± 3%; in data set [4] (mTNF-α 100 pg/ml, -p55) it was 30 ± 2%; in data set [4] (setting [9]), 41 ± 4%; in data set [4] (mTNF-α 1000 pg/ml, -p55) it was 45 ± 5%; in data set [4] (setting [10]), 56 ± 3%; in data set [4] (mTNF-α 10000 pg/ml, -p55), 60 ± 4%. Moreover, in data set [6], the “general condition of mice” value is on record as “all suffered from severe respiration problems”. Moreover, in data set [6], the mean lung weight stood at 1088.2 ± 315.7. Moreover, the specific activity is recorded as ~2×10^8 U/mg in data set [7] (bioactivity on L929 cells, purified wild type) and 10^8 units/mg in data set [7] (purified recombinant, produced in E. coli, assay not stated). The “Tumoricidal activity (% lysis)” value in data set [7] (mTNF-α 100 pg/ml, +p55 (5 μg/ml)) came to 0 ± 1%; in data set [7] (mTNF-α 100 pg/ml, -p55), 40 ± 2%; in data set [7] (setting [9]), 0 ± 1%; in data set [7] (mTNF-α 1000 pg/ml, -p55), 92 ± 3%; in data set [7] (setting [10]), 93 ± 3%; in data set [7] (mTNF-α 10000 pg/ml, -p55) it was 98 ± 4%. For the same molecule, the “concentration TNF-α” value in data set [8] (setting [11]) was 1000 ng/mL; in data set [8] (setting [12]), 880 ng/mL; in data set [8] (setting [13]), 650 ng/mL; in data set [8] (setting [14]), 500 ng/mL; in data set [8] (setting [15]), 420 ng/mL; in data set [8] (setting [16]), 320 ng/mL. The “concentration TNF-α” value in data set [8] (setting [17]) was 20 ng/mL; in data set [8] (setting [18]), 10 ng/mL; in data set [8] (setting [19]) it was 0 ng/mL; in data set [8] (setting [20]), 1000 ng/mL; in data set [8] (setting [21]) it was 550 ng/mL; in data set [8] (setting [22]), 500 ng/mL. Besides, the “concentration TNF-α” value came to 480 ng/mL in data set [8] (setting [23]), 20 ng/mL in data set [8] (setting [24]), 0 ng/mL in data set [8] (setting [25]) and 0 ng/mL in data set [8] (setting [26]).

B1: mouse interleukin 1α: mouse interleukin 1α (protein, UniProt P01582 115-270, looked up)
Interleukin-1 alpha: SAPYTYQSDLRYKLMKLVRQKFVMNDSLNQTIYQDVDKHYLSTTWLNDLQQEVKFDMYAYSSGGDDSKYPVTLKISDSQLFVSAQGEDQPVLLKELPETPKLITGSETDLIFFWKSINSKNYFTSAAYPELFIATKEQSRVHLARGLPSMTDFQIS
B1: the mortality of trypanosomes result in data set [4] (T. brucei brucei, 5 h) was “do not cause any mortality”; in data set [5], “do not cause any mortality”.

B2: del mTNF-α: tip-deleted mTNF-α; the TPEGAE coding sequence is deleted from the mTNF gene (protein)
chain: LRSSSQNSSDKPVAHVVANHQVEEQLEWLSQRANALLANGMDLKDNQLVVPADGLYLVYSQVLFKGQGCPDYVLLTHTVSRFAISYQEKVNLLSAVKSPCPKDLKPWYEPIYLGGVFQLEKGDQLSAEVNLPKYLDFAESGQVYFGVIAL
Consider B2, for which the IL8 concentration was 1800 pg/mL in data set [1] (333 pg/ml, experiment 1); 2450 pg/mL in data set [1] (333 pg/ml, experiment 2); 1300 pg/mL in data set [1] (1000 pg/ml, experiment 1); 2200 pg/mL in data set [1] (1000 pg/ml, experiment 2); 850 pg/mL in data set [1] (1666 pg/ml, experiment 1); 1250 pg/mL in data set [1] (1666 pg/ml, experiment 2). For the same molecule, the entries for the “IL8 induction compared with wild type” value in data set [1] (listed as deletion mutant of mTNFα in the region extending from amino acids 105 to 110) and in data set [1] (listed as tip deletion mutant) were “induce consistently less human interleukin 8 (IL8)” and “about two times more powerful in inducing the inflammatory cytokine IL8”, respectively. The IL6 concentration in data set [2] (333 pg/ml, experiment 1) was 760 pg/mL; in data set [2] (333 pg/ml, experiment 2), 850 pg/mL; in data set [2] (1000 pg/ml, experiment 1), 1180 pg/mL; in data set [2] (1000 pg/ml, experiment 2), 1600 pg/mL; in data set [2] (1666 pg/ml, experiment 1), 1240 pg/mL; in data set [2] (1666 pg/ml, experiment 2), 1900 pg/mL. In addition, the “IL6 induction compared with wild type” value in data set [2] (hMVECb) is given as “higher induction of human interleukin-6”. Also, the “metastasis enhancing potential compared with wild type TNF” value in data set [6] (listed as TNF tip deletion mutant) is “considerably lower than that of wild type TNF”; in data set [6] (listed as mTNFα mutein carrying a deletion of the region extending from amino acids 105 to), “considerably lower in vivo metastasis enhancing potential”. For the same molecule, the “general condition of mice” value in data set [6] is reported as “looked significantly better”. In data set [6], this molecule registered a mean lung weight of 566 ± 318. In data set [8] (1 μg/mouse i.p.), the “longer half life than wild type TNF-α” value was “at least 2 fold”. The “concentration TNF-α” value was found to be 1000 ng/mL in data set [8] (setting [11]); 990 ng/mL in data set [8] (setting [12]); 640 ng/mL in data set [8] (setting [13]); 550 ng/mL in data set [8] (setting [14]); 580 ng/mL in data set [8] (setting [15]); 450 ng/mL in data set [8] (setting [16]). Also, the “concentration TNF-α” value in data set [8] (setting [17]) amounted to 250 ng/mL; in data set [8] (setting [18]), 100 ng/mL; in data set [8] (setting [19]), 10 ng/mL; in data set [8] (setting [20]) it was 1000 ng/mL; in data set [8] (setting [21]), 600 ng/mL; in data set [8] (setting [22]), 500 ng/mL. Besides, the “concentration TNF-α” value in data set [8] (setting [23]) stood at 500 ng/mL; in data set [8] (setting [24]) it was 330 ng/mL; in data set [8] (setting [25]) it was 240 ng/mL; in data set [8] (setting [26]) it was 20 ng/mL. The “in vivo half life compared with wild type” value in data set [8] (L929 cytotoxic assay and indirect ELISA) was “increased half life”.

B3: mouse interleukin 1β: mouse interleukin 1β (protein, UniProt P10749 118-269, looked up)
Interleukin-1 beta: VPIRQLHYRLRDEQQKSLVLSDPYELKALHLNGQNINQQVIFSMSFVQGEPSNDKIPVALGLKGKNLYLSCVMKDGTPTLQLESVDPKQYPKKKMEKRFVFNKIEVKSKVEFESAEFPNWYISTSQAEHKPVFLGNNSGQDIIDFTMESVSS
Turning to B3, the mortality of trypanosomes result in data set [4] (T. brucei brucei, 5 h) is “do not cause any mortality”; in data set [5], “do not cause any mortality”.

B4: hTNF-β: Human recombinant TNF-β (lymphotoxin) (protein, UniProt P01374 35-205, looked up)
Lymphotoxin-alpha: LPGVGLTPSAAQTARQHPKMHLAHSTLKPAAHLIGDPSKQNSLLWRANTDRAFLQDGFSLSNNSLLVPTSGIYFVYSQVVFSGKAYSPKATSSPLYLAHEVQLFSSQYPFHVPLLSSQKMVYPGLQEPWLHSMYHGAAFQLTQGDQLSTHTDGIPHLVLSPSTVFFGAFAL
For the molecule B4, the mortality of trypanosomes entry is given as “do not cause any mortality” in data set [4] (T. brucei brucei, 5 h) and “do not cause any mortality” in data set [5].
